{
  "source": "the supplement of paper PMC9112550",
  "about": "“Optimization of the antimicrobial peptide Bac7 by deep mutational scanning” (BMC Biology, 2022);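 note: peptides expressed intracellularly from a pBAD plasmid library in pooled LB shake-flask culture, induced with 0.3% L-arabinose, DNA abundance read by NGS, three biological replicates, DESeq2 with apeglm shrinkage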",
  "data": [
    {"tested_on": "Escherichia coli TOP10", "experiment": "shrunken log2 fold change of peptide-encoding DNA abundance (4.5 h post-induction vs induction); higher = less antimicrobial activity (less host growth inhibition)", "settings": "time post-induction: 4.5 h; library: site-saturation at positions 5, 18, 19, 20", "values": [
      {"sequence": "RRIRSRPPRLPRPRPRPKNQPRP", "shrunken log2 fold change": -0.177},
      {"sequence": "RRIRYRPPRLPRPRPRPPRMPRP", "shrunken log2 fold change": -0.215},
      {"sequence": "RRIRMRPPRLPRPRPRPYIFPRP", "shrunken log2 fold change": -0.265},
      {"sequence": "RRIRARPPRLPRPRPRPGVMPRP", "shrunken log2 fold change": 0.437},
      {"sequence": "RRIRPRPPRLPRPRPRPLYCPRP", "shrunken log2 fold change": -0.548},
      {"sequence": "RRIRYRPPRLPRPRPRPDNYPRP", "shrunken log2 fold change": -0.175},
      {"sequence": "RRIRFRPPRLPRPRPRPTQMPRP", "shrunken log2 fold change": 0.149},
      {"sequence": "RRIRNRPPRLPRPRPRPYGEPRP", "shrunken log2 fold change": -0.16},
      {"sequence": "RRIRRRPPRLPRPRPRPLFMPRP", "shrunken log2 fold change": 0.0797},
      {"sequence": "RRIRLRPPRLPRPRPRPLNTPRP", "shrunken log2 fold change": -0.454},
      {"sequence": "RRIRARPPRLPRPRPRPHQGPRP", "shrunken log2 fold change": -0.0611},
      {"sequence": "RRIRQRPPRLPRPRPRPGREPRP", "shrunken log2 fold change": 0.221},
      {"sequence": "RRIRGRPPRLPRPRPRPDQDPRP", "shrunken log2 fold change": 1.06},
      {"sequence": "RRIRMRPPRLPRPRPRPVNAPRP", "shrunken log2 fold change": 0.297},
      {"sequence": "RRIRSRPPRLPRPRPRPHMYPRP", "shrunken log2 fold change": -0.37},
      {"sequence": "RRIRRRPPRLPRPRPRPCHAPRP", "shrunken log2 fold change": -0.0577},
      {"sequence": "RRIRYRPPRLPRPRPRPQVIPRP", "shrunken log2 fold change": -0.0134},
      {"sequence": "RRIRKRPPRLPRPRPRPWMYPRP", "shrunken log2 fold change": -0.122},
      {"sequence": "RRIRCRPPRLPRPRPRPKTKPRP", "shrunken log2 fold change": 0.177},
      {"sequence": "RRIRVRPPRLPRPRPRPKRRPRP", "shrunken log2 fold change": -0.0117},
      {"sequence": "RRIRKRPPRLPRPRPRPKQIPRP", "shrunken log2 fold change": 0.0984},
      {"sequence": "RRIRRRPPRLPRPRPRPMVVPRP", "shrunken log2 fold change": 0.00307},
      {"sequence": "RRIRCRPPRLPRPRPRPNSQPRP", "shrunken log2 fold change": -0.47},
      {"sequence": "RRIRPRPPRLPRPRPRPGKMPRP", "shrunken log2 fold change": 0.0379},
      {"sequence": "RRIRKRPPRLPRPRPRPQCLPRP", "shrunken log2 fold change": 0.131},
      {"sequence": "RRIRRRPPRLPRPRPRPIFFPRP", "shrunken log2 fold change": 0.261},
      {"sequence": "RRIRARPPRLPRPRPRPPAEPRP", "shrunken log2 fold change": 1.15},
      {"sequence": "RRIRRRPPRLPRPRPRPLVYPRP", "shrunken log2 fold change": -0.325},
      {"sequence": "RRIRYRPPRLPRPRPRPIWSPRP", "shrunken log2 fold change": -0.0646},
      {"sequence": "RRIRNRPPRLPRPRPRPIIRPRP", "shrunken log2 fold change": -0.00165},
      {"sequence": "RRIRSRPPRLPRPRPRPTDEPRP", "shrunken log2 fold change": -0.148},
      {"sequence": "RRIRSRPPRLPRPRPRPYDFPRP", "shrunken log2 fold change": -0.195},
      {"sequence": "RRIRSRPPRLPRPRPRPDVMPRP", "shrunken log2 fold change": -0.0117},
      {"sequence": "RRIRYRPPRLPRPRPRPDVDPRP", "shrunken log2 fold change": -0.0562},
      {"sequence": "RRIRTRPPRLPRPRPRPNWSPRP", "shrunken log2 fold change": 0.0464},
      {"sequence": "RRIRCRPPRLPRPRPRPIRWPRP", "shrunken log2 fold change": 0.034},
      {"sequence": "RRIRIRPPRLPRPRPRPLLFPRP", "shrunken log2 fold change": -0.553},
      {"sequence": "RRIRARPPRLPRPRPRPKIRPRP", "shrunken log2 fold change": 0.379},
      {"sequence": "RRIRFRPPRLPRPRPRPMMCPRP", "shrunken log2 fold change": -0.139},
      {"sequence": "RRIRKRPPRLPRPRPRPCGFPRP", "shrunken log2 fold change": 0.279},
      {"sequence": "RRIRRRPPRLPRPRPRPWFFPRP", "shrunken log2 fold change": 0.08},
      {"sequence": "RRIRLRPPRLPRPRPRPFEPPRP", "shrunken log2 fold change": 0.00273},
      {"sequence": "RRIRMRPPRLPRPRPRPGHQPRP", "shrunken log2 fold change": 0.568},
      {"sequence": "RRIRVRPPRLPRPRPRPRQIPRP", "shrunken log2 fold change": 0.0436},
      {"sequence": "RRIRGRPPRLPRPRPRPMMHPRP", "shrunken log2 fold change": 0.456},
      {"sequence": "RRIRPRPPRLPRPRPRPDKLPRP", "shrunken log2 fold change": 0.038},
      {"sequence": "RRIRSRPPRLPRPRPRPADVPRP", "shrunken log2 fold change": 0.438},
      {"sequence": "RRIRCRPPRLPRPRPRPVYWPRP", "shrunken log2 fold change": 0.134},
      {"sequence": "RRIRYRPPRLPRPRPRPFDHPRP", "shrunken log2 fold change": -0.0332},
      {"sequence": "RRIRHRPPRLPRPRPRPDIYPRP", "shrunken log2 fold change": 0.027},
      {"sequence": "RRIRTRPPRLPRPRPRPLWWPRP", "shrunken log2 fold change": 0.546},
      {"sequence": "RRIRWRPPRLPRPRPRPDLPPRP", "shrunken log2 fold change": 0.0222},
      {"sequence": "RRIRHRPPRLPRPRPRPFMAPRP", "shrunken log2 fold change": -0.548},
      {"sequence": "RRIRNRPPRLPRPRPRPVNIPRP", "shrunken log2 fold change": -0.435},
      {"sequence": "RRIRWRPPRLPRPRPRPPHRPRP", "shrunken log2 fold change": 0.321},
      {"sequence": "RRIRQRPPRLPRPRPRPRPYPRP", "shrunken log2 fold change": -0.357},
      {"sequence": "RRIRDRPPRLPRPRPRPCQFPRP", "shrunken log2 fold change": 0.0215},
      {"sequence": "RRIRFRPPRLPRPRPRPHWCPRP", "shrunken log2 fold change": -0.262},
      {"sequence": "RRIRFRPPRLPRPRPRPKVGPRP", "shrunken log2 fold change": -0.01},
      {"sequence": "RRIRVRPPRLPRPRPRPEQHPRP", "shrunken log2 fold change": 0.262},
      {"sequence": "RRIRKRPPRLPRPRPRPKRNPRP", "shrunken log2 fold change": 0.689},
      {"sequence": "RRIRERPPRLPRPRPRPAVDPRP", "shrunken log2 fold change": 0.116},
      {"sequence": "RRIRPRPPRLPRPRPRPWSSPRP", "shrunken log2 fold change": -0.977},
      {"sequence": "RRIRIRPPRLPRPRPRPLQVPRP", "shrunken log2 fold change": -2},
      {"sequence": "RRIRSRPPRLPRPRPRPPFTPRP", "shrunken log2 fold change": -0.00795},
      {"sequence": "RRIRPRPPRLPRPRPRPKQSPRP", "shrunken log2 fold change": 0.142},
      {"sequence": "RRIRFRPPRLPRPRPRPDTPPRP", "shrunken log2 fold change": 1.5},
      {"sequence": "RRIRRRPPRLPRPRPRPVWCPRP", "shrunken log2 fold change": 0.273},
      {"sequence": "RRIRERPPRLPRPRPRPEHYPRP", "shrunken log2 fold change": -0.454},
      {"sequence": "RRIRMRPPRLPRPRPRPQHLPRP", "shrunken log2 fold change": -0.344},
      {"sequence": "RRIRWRPPRLPRPRPRPSGSPRP", "shrunken log2 fold change": 0.316},
      {"sequence": "RRIRWRPPRLPRPRPRPDYHPRP", "shrunken log2 fold change": -0.219},
      {"sequence": "RRIRIRPPRLPRPRPRPRLKPRP", "shrunken log2 fold change": 0.0139},
      {"sequence": "RRIRLRPPRLPRPRPRPWVLPRP", "shrunken log2 fold change": -0.0289},
      {"sequence": "RRIRPRPPRLPRPRPRPYQLPRP", "shrunken log2 fold change": -0.441}
    ]}
  ]
}
